Reference: paper PMC4530445, “PDZ interaction of Vangl2 links PSD-95 and Prickle2 but plays only a limited role in the synaptic localisation of Vangl2” (Scientific Reports, 2015)

Molecular target: T1, GFP-PSD-95 (green fluorescent protein-tagged postsynaptic density-95) (UniProt P31016 1-724)
T1 construct: postsynaptic density-95 (PSD-95); Printed as GFP-PSD-95 in the results and PSD-95-GFP in the methods; also called PSD-95-GFP; source: HEK293T, transfected, in lysate
Assay: co-IP; HEK293T cells cotransfected with HA-Prickle2 and GFP-PSD-95, with or without FLAG-Vangl2 WT or ΔETSV; IP of the lysate with α-GFP Abs, western blot; 1% NP-40, 150 mM NaCl, 50 mM Tris-Cl pH 7.5, 2 mM EDTA, 10% glycerol, on ice or at 4 °C; precipitated Prickle2 (IP/Input) divided by the relative amount of precipitated PSD-95-GFP
Conditions: partners not purified

T1 sequence (P31016 whole entry): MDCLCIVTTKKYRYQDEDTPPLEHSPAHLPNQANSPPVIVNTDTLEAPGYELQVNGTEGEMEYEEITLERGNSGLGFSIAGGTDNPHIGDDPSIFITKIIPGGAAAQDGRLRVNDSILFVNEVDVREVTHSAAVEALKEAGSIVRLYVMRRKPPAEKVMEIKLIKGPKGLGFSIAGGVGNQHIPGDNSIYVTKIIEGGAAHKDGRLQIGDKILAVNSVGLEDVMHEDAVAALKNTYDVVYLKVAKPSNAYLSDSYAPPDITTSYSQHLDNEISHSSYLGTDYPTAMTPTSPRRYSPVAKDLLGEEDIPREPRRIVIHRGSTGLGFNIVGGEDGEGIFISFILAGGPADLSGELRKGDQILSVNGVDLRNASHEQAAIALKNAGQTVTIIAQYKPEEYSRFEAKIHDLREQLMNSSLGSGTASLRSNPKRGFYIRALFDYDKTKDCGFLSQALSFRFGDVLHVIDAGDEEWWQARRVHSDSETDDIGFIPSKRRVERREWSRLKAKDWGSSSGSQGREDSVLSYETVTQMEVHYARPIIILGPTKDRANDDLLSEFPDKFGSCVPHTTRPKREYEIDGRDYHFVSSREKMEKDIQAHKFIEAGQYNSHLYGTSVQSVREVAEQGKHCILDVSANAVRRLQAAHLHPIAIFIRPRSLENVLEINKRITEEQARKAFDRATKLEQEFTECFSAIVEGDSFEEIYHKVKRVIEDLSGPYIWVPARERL

B1: hemagglutinin (HA)-Prickle2 (natural protein, UniProt Q80Y24 1-845, looked up)
chain: MVTVMPLEMEKTISKLMFDFQRSSTSDDDSGCALEEYAWVPPGLKPEQVHQYYSCLPEEKVPYVNSAGEKLRIKQLLHQLPPHDNEVRYCNSLDEEEKRELKLFSNQRKRENLGRGNVRPFPVTMTGAICEQCGGQIKGGDIAVFASRAGHGICWHPPCFVCTVCNELLVDLIYFYQDGKIYCGRHHAECLKPRCAACDEIIFADECTEAEGRHWHMRHFCCFECETVLGGQRYIMKEGRPYCCHCFESLYAEYCDTCAQHIGIDQGQMTYDGQHWHATETCFCCAHCKKSLLGRPFLPKQGQIFCSRACSAGEDPNGSDSSDSAFQNARAKESRRSAKIGKNKGKTEEAMLNQHSQLQVSSNRLSADVDPLSVQMDLLSLSSQTPSLNRDPIWRSREEPFHYGNKMEQNQSQSPLQLLSQCNIRTSYSPGGQGAGAQPDMWAKHFSNPKRSSSMALKGHGGSFIQECREDYYPGRLMSQESYSDMSSQSFNETRGSIPVPKYEEEEEEEEGGISTQQCRPRRPLSSLKYTEDMTPTEQTPRGSMESLALSNATGLSAEGGAKRQEHLSRFSMPDLSKDSGMNVSEKLSNMGTLNSSMQFRSAESVRSLLSAQQYQEMEGNLHQLSNPLGYRDLQSHGRMHQSFDFDGGIASSKLPGQEGVHIQPMSERTRRRTTSRDDNRRFRPHRSRRSRRSRSDNALHLASEREVIARLKERPPLRAREDYDQFMRQRSFQESLGQGSRRDLYSQCPRTVSDLALQNAFGERWGPYFTEYDWCSTCSSSSESDNEGYFLGEPIPQPARLRYVTSDELLHKYSSYGVPKSSTLGGRGQLHSRKRQKSKNCIIS
notes: Prickle2; source: HEK293T, transfected, in lysate
fold increase of the precipitated amount of Prickle2 with FLAG-Vangl2 co-expressed, against without Vangl2: 63.6 fold
